Measurements reported in paper PMC4260915, “Colorful Protein-Based Fluorescent Probes for Collagen Imaging” (PLoS ONE, 2014).

B1: mTurquoise2-CNA35 (domain or fragment)
chain: ARDISSTNVTDLTVSPSKIEDGGKTTVKMTFDDKNGKIQNGDMIKVAWPTSGTVKIEGYSKTVPLTVKGEQVGQAVITPDGATITFNDKVEKLSDVSGFAEFEVQGRNLTQTNTSDDKVATITSGNKSTNVTVHKSEAGTSSVFYYKTGDMLPEDTTHVRWFLNINNEKSYVSKDITIKDQIQGGQQLDLSTLNINVTGTHSNYYSGQSAITDFEKAFPGSKITVDNTKNTIDVTIPQGYGSYNSFSINYKTKITNEQQKEFVNNSQAWYQEHGKEEVNGKSFNHTVHNINANAGIEGTVKGELKVLKQDKDTKA
notes: CNA35: domains N1 and N2 of the A-region of Staphylococcus aureus collagen adhesion protein, amino acids 30-344; Order: His-tag, thrombin cleavage site, mTurquoise2, flexible linkage of about 20 amino acids, CNA35; 65.2 kDa; also called FP-CNA35; N-terminal fusion of mTurquoise2 to CNA35; not shown: mTurquoise2, N-terminal, kept
B2: tdTomato-CNA35 (domain or fragment)
chain: ARDISSTNVTDLTVSPSKIEDGGKTTVKMTFDDKNGKIQNGDMIKVAWPTSGTVKIEGYSKTVPLTVKGEQVGQAVITPDGATITFNDKVEKLSDVSGFAEFEVQGRNLTQTNTSDDKVATITSGNKSTNVTVHKSEAGTSSVFYYKTGDMLPEDTTHVRWFLNINNEKSYVSKDITIKDQIQGGQQLDLSTLNINVTGTHSNYYSGQSAITDFEKAFPGSKITVDNTKNTIDVTIPQGYGSYNSFSINYKTKITNEQQKEFVNNSQAWYQEHGKEEVNGKSFNHTVHNINANAGIEGTVKGELKVLKQDKDTKA
notes: CNA35: domains N1 and N2 of the A-region of Staphylococcus aureus collagen adhesion protein, amino acids 30-344; Order: His-tag, thrombin cleavage site, tdTomato, flexible linkage of about 20 amino acids, CNA35; 92.5 kDa; also called FP-CNA35; N-terminal fusion of tdTomato to CNA35; not shown: tdTomato, N-terminal, kept
B3: CNA35-EGFP (domain or fragment)
chain: ARDISSTNVTDLTVSPSKIEDGGKTTVKMTFDDKNGKIQNGDMIKVAWPTSGTVKIEGYSKTVPLTVKGEQVGQAVITPDGATITFNDKVEKLSDVSGFAEFEVQGRNLTQTNTSDDKVATITSGNKSTNVTVHKSEAGTSSVFYYKTGDMLPEDTTHVRWFLNINNEKSYVSKDITIKDQIQGGQQLDLSTLNINVTGTHSNYYSGQSAITDFEKAFPGSKITVDNTKNTIDVTIPQGYGSYNSFSINYKTKITNEQQKEFVNNSQAWYQEHGKEEVNGKSFNHTVHNINANAGIEGTVKGELKVLKQDKDTKA
notes: CNA35: domains N1 and N2 of the A-region of Staphylococcus aureus collagen adhesion protein, amino acids 30-344; Order: His-tag, thrombin cleavage site, CNA35, flexible linkage of about 20 amino acids, EGFP; 65.1 kDa; also called CNA35-FP; C-terminal fusion of EGFP to CNA35; not shown: EGFP, C-terminal, kept
B4: CNA35-tdTomato (domain or fragment)
chain: ARDISSTNVTDLTVSPSKIEDGGKTTVKMTFDDKNGKIQNGDMIKVAWPTSGTVKIEGYSKTVPLTVKGEQVGQAVITPDGATITFNDKVEKLSDVSGFAEFEVQGRNLTQTNTSDDKVATITSGNKSTNVTVHKSEAGTSSVFYYKTGDMLPEDTTHVRWFLNINNEKSYVSKDITIKDQIQGGQQLDLSTLNINVTGTHSNYYSGQSAITDFEKAFPGSKITVDNTKNTIDVTIPQGYGSYNSFSINYKTKITNEQQKEFVNNSQAWYQEHGKEEVNGKSFNHTVHNINANAGIEGTVKGELKVLKQDKDTKA
notes: CNA35: domains N1 and N2 of the A-region of Staphylococcus aureus collagen adhesion protein, amino acids 30-344; Order: His-tag, thrombin cleavage site, CNA35, flexible linkage of about 20 amino acids, tdTomato; 93.1 kDa; also called CNA35-FP; C-terminal fusion of tdTomato to CNA35; not shown: tdTomato, C-terminal, kept
B5: CNA35-mCherry (domain or fragment)
chain: ARDISSTNVTDLTVSPSKIEDGGKTTVKMTFDDKNGKIQNGDMIKVAWPTSGTVKIEGYSKTVPLTVKGEQVGQAVITPDGATITFNDKVEKLSDVSGFAEFEVQGRNLTQTNTSDDKVATITSGNKSTNVTVHKSEAGTSSVFYYKTGDMLPEDTTHVRWFLNINNEKSYVSKDITIKDQIQGGQQLDLSTLNINVTGTHSNYYSGQSAITDFEKAFPGSKITVDNTKNTIDVTIPQGYGSYNSFSINYKTKITNEQQKEFVNNSQAWYQEHGKEEVNGKSFNHTVHNINANAGIEGTVKGELKVLKQDKDTKA
notes: CNA35: domains N1 and N2 of the A-region of Staphylococcus aureus collagen adhesion protein, amino acids 30-344; Order: His-tag, thrombin cleavage site, CNA35, flexible linkage of about 20 amino acids, mCherry; 64.7 kDa; also called CNA35-FP; C-terminal fusion of mCherry to CNA35; not shown: mCherry, C-terminal, kept
B6: mCherry-CNA35 (domain or fragment)
chain: ARDISSTNVTDLTVSPSKIEDGGKTTVKMTFDDKNGKIQNGDMIKVAWPTSGTVKIEGYSKTVPLTVKGEQVGQAVITPDGATITFNDKVEKLSDVSGFAEFEVQGRNLTQTNTSDDKVATITSGNKSTNVTVHKSEAGTSSVFYYKTGDMLPEDTTHVRWFLNINNEKSYVSKDITIKDQIQGGQQLDLSTLNINVTGTHSNYYSGQSAITDFEKAFPGSKITVDNTKNTIDVTIPQGYGSYNSFSINYKTKITNEQQKEFVNNSQAWYQEHGKEEVNGKSFNHTVHNINANAGIEGTVKGELKVLKQDKDTKA
notes: CNA35: domains N1 and N2 of the A-region of Staphylococcus aureus collagen adhesion protein, amino acids 30-344; Order: His-tag, thrombin cleavage site, mCherry, flexible linkage of about 20 amino acids, CNA35; 64.6 kDa; also called FP-CNA35; N-terminal fusion of mCherry to CNA35; not shown: mCherry, N-terminal, kept
B7: LSSmOrange-CNA35 (domain or fragment)
chain: ARDISSTNVTDLTVSPSKIEDGGKTTVKMTFDDKNGKIQNGDMIKVAWPTSGTVKIEGYSKTVPLTVKGEQVGQAVITPDGATITFNDKVEKLSDVSGFAEFEVQGRNLTQTNTSDDKVATITSGNKSTNVTVHKSEAGTSSVFYYKTGDMLPEDTTHVRWFLNINNEKSYVSKDITIKDQIQGGQQLDLSTLNINVTGTHSNYYSGQSAITDFEKAFPGSKITVDNTKNTIDVTIPQGYGSYNSFSINYKTKITNEQQKEFVNNSQAWYQEHGKEEVNGKSFNHTVHNINANAGIEGTVKGELKVLKQDKDTKA
notes: CNA35: domains N1 and N2 of the A-region of Staphylococcus aureus collagen adhesion protein, amino acids 30-344; Order: His-tag, thrombin cleavage site, LSSmOrange, flexible linkage of about 20 amino acids, CNA35; 64.6 kDa; also called FP-CNA35; N-terminal fusion of LSSmOrange to CNA35; not shown: LSSmOrange, N-terminal, kept
B8: CNA35-LSSmOrange (domain or fragment)
chain: ARDISSTNVTDLTVSPSKIEDGGKTTVKMTFDDKNGKIQNGDMIKVAWPTSGTVKIEGYSKTVPLTVKGEQVGQAVITPDGATITFNDKVEKLSDVSGFAEFEVQGRNLTQTNTSDDKVATITSGNKSTNVTVHKSEAGTSSVFYYKTGDMLPEDTTHVRWFLNINNEKSYVSKDITIKDQIQGGQQLDLSTLNINVTGTHSNYYSGQSAITDFEKAFPGSKITVDNTKNTIDVTIPQGYGSYNSFSINYKTKITNEQQKEFVNNSQAWYQEHGKEEVNGKSFNHTVHNINANAGIEGTVKGELKVLKQDKDTKA
notes: CNA35: domains N1 and N2 of the A-region of Staphylococcus aureus collagen adhesion protein, amino acids 30-344; Order: His-tag, thrombin cleavage site, CNA35, flexible linkage of about 20 amino acids, LSSmOrange; 64.7 kDa; also called CNA35-FP; C-terminal fusion of LSSmOrange to CNA35; not shown: LSSmOrange, C-terminal, kept
B9: EGFP-CNA35 (domain or fragment)
chain: ARDISSTNVTDLTVSPSKIEDGGKTTVKMTFDDKNGKIQNGDMIKVAWPTSGTVKIEGYSKTVPLTVKGEQVGQAVITPDGATITFNDKVEKLSDVSGFAEFEVQGRNLTQTNTSDDKVATITSGNKSTNVTVHKSEAGTSSVFYYKTGDMLPEDTTHVRWFLNINNEKSYVSKDITIKDQIQGGQQLDLSTLNINVTGTHSNYYSGQSAITDFEKAFPGSKITVDNTKNTIDVTIPQGYGSYNSFSINYKTKITNEQQKEFVNNSQAWYQEHGKEEVNGKSFNHTVHNINANAGIEGTVKGELKVLKQDKDTKA
notes: CNA35: domains N1 and N2 of the A-region of Staphylococcus aureus collagen adhesion protein, amino acids 30-344; Order: His-tag, thrombin cleavage site, EGFP, flexible linkage of about 20 amino acids, CNA35; 65.0 kDa; also called N-terminal fusion of EGFP to CNA35; not shown: EGFP, N-terminal, kept
B10: CNA35-mTurquoise2 (domain or fragment)
chain: ARDISSTNVTDLTVSPSKIEDGGKTTVKMTFDDKNGKIQNGDMIKVAWPTSGTVKIEGYSKTVPLTVKGEQVGQAVITPDGATITFNDKVEKLSDVSGFAEFEVQGRNLTQTNTSDDKVATITSGNKSTNVTVHKSEAGTSSVFYYKTGDMLPEDTTHVRWFLNINNEKSYVSKDITIKDQIQGGQQLDLSTLNINVTGTHSNYYSGQSAITDFEKAFPGSKITVDNTKNTIDVTIPQGYGSYNSFSINYKTKITNEQQKEFVNNSQAWYQEHGKEEVNGKSFNHTVHNINANAGIEGTVKGELKVLKQDKDTKA
notes: CNA35: domains N1 and N2 of the A-region of Staphylococcus aureus collagen adhesion protein, amino acids 30-344; Order: His-tag, thrombin cleavage site, CNA35, flexible linkage of about 20 amino acids, mTurquoise2; 65.0 kDa; also called CNA35-FP; C-terminal fusion of mTurquoise2 to CNA35; not shown: mTurquoise2, C-terminal, kept
B11: mAmetrine-CNA35 (domain or fragment)
chain: ARDISSTNVTDLTVSPSKIEDGGKTTVKMTFDDKNGKIQNGDMIKVAWPTSGTVKIEGYSKTVPLTVKGEQVGQAVITPDGATITFNDKVEKLSDVSGFAEFEVQGRNLTQTNTSDDKVATITSGNKSTNVTVHKSEAGTSSVFYYKTGDMLPEDTTHVRWFLNINNEKSYVSKDITIKDQIQGGQQLDLSTLNINVTGTHSNYYSGQSAITDFEKAFPGSKITVDNTKNTIDVTIPQGYGSYNSFSINYKTKITNEQQKEFVNNSQAWYQEHGKEEVNGKSFNHTVHNINANAGIEGTVKGELKVLKQDKDTKA
notes: CNA35: domains N1 and N2 of the A-region of Staphylococcus aureus collagen adhesion protein, amino acids 30-344; Order: His-tag, thrombin cleavage site, mAmetrine, flexible linkage of about 20 amino acids, CNA35; 64.3 kDa; also called FP-CNA35; N-terminal fusion of mAmetrine to CNA35; not shown: mAmetrine, N-terminal, kept
B12: CNA35-mAmetrine (domain or fragment)
chain: ARDISSTNVTDLTVSPSKIEDGGKTTVKMTFDDKNGKIQNGDMIKVAWPTSGTVKIEGYSKTVPLTVKGEQVGQAVITPDGATITFNDKVEKLSDVSGFAEFEVQGRNLTQTNTSDDKVATITSGNKSTNVTVHKSEAGTSSVFYYKTGDMLPEDTTHVRWFLNINNEKSYVSKDITIKDQIQGGQQLDLSTLNINVTGTHSNYYSGQSAITDFEKAFPGSKITVDNTKNTIDVTIPQGYGSYNSFSINYKTKITNEQQKEFVNNSQAWYQEHGKEEVNGKSFNHTVHNINANAGIEGTVKGELKVLKQDKDTKA
notes: CNA35: domains N1 and N2 of the A-region of Staphylococcus aureus collagen adhesion protein, amino acids 30-344; Order: His-tag, thrombin cleavage site, CNA35, flexible linkage of about 20 amino acids, mAmetrine; 64.4 kDa; also called CNA35-FP; C-terminal fusion of mAmetrine to CNA35; not shown: mAmetrine, C-terminal, kept

These binders were tested against T1, Rat tail collagen type I (rat, UniProt P02454 152-1207; P02466 86-1125) (assay: solid-phase collagen binding assay (fluorescence of bound probe, plate reader); rat tail collagen type I or BSA immobilised in wells of a 96-well plate, blocked with 2% BSA; probe dilutions 0.1–50 µM, 1–1.5 hours at room temperature; 20 mM HEPES pH 7.2, 150 mM NaCl; apparent overall Kd). Conditions: both partners purified.
T1 construct: collagen alpha-1(I) chain, rat; collagen alpha-2(I) chain, rat; Immobilised as a collagen matrix formed on pH neutralisation; source: bought: Sigma-Aldrich, cat. no; C7661
T1 sequence (P02454 152-1207, chain 1 of 2): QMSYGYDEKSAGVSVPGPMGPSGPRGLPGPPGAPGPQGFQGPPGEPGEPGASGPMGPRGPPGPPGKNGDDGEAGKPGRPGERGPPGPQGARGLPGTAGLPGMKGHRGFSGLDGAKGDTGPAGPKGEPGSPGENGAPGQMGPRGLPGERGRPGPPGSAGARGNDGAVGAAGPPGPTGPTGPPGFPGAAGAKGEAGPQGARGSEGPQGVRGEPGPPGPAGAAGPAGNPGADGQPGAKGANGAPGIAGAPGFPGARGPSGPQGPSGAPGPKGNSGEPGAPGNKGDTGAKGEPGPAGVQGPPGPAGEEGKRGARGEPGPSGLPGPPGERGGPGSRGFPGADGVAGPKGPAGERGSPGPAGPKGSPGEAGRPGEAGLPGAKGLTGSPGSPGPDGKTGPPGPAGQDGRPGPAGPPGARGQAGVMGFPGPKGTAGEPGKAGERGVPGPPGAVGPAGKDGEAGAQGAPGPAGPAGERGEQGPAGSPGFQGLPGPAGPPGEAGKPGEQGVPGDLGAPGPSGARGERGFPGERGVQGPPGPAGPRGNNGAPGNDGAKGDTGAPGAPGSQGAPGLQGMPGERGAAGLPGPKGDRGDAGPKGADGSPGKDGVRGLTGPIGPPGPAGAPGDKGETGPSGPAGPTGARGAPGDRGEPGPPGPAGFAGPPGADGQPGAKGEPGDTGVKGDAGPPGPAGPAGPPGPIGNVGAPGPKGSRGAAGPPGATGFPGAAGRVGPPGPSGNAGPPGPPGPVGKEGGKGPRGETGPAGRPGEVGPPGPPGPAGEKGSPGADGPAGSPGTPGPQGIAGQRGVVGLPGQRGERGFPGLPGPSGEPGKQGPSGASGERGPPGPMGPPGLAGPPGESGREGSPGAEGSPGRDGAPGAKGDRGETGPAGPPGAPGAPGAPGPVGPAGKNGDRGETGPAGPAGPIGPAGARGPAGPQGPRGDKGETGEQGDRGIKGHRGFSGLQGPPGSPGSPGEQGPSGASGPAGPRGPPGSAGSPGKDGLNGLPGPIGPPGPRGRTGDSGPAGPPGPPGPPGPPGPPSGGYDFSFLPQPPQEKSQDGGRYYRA
T1 sequence (P02466 86-1125, chain 2 of 2): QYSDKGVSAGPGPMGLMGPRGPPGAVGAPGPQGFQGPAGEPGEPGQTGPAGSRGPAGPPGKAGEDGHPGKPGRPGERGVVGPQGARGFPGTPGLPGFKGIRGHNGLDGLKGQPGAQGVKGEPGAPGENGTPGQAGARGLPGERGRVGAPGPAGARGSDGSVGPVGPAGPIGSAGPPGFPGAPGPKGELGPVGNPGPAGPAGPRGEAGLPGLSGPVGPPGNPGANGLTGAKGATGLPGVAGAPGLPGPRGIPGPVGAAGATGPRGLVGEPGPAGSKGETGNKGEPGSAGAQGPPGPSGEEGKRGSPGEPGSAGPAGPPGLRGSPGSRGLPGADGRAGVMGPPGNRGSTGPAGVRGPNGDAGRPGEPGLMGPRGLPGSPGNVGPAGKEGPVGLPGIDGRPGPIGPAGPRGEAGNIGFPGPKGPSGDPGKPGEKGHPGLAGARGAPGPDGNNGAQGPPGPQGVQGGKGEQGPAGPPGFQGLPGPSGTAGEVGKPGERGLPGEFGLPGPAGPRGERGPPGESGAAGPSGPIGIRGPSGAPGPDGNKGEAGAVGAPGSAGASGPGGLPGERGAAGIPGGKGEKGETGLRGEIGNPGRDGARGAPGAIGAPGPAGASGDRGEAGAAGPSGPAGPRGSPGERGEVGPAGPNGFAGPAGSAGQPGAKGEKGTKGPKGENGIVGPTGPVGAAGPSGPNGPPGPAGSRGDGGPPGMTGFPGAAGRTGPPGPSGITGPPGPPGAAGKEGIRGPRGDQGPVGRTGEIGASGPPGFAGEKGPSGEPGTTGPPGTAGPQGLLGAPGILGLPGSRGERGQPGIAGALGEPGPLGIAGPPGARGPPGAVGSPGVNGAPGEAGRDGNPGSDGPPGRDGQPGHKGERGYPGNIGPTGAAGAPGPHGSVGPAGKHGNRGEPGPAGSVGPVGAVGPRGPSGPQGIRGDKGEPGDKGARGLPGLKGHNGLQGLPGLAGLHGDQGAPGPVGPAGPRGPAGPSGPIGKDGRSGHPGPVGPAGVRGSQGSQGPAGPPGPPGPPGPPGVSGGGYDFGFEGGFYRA
B1 was tested, and the Kd was roughly 1000 nM. B2 was tested, and the Kd was roughly 1000 nM. Work on B3 yielded a Kd of roughly 1000 nM. B4 showed a Kd of roughly 1000 nM. B5 gave a Kd of roughly 1000 nM. For B6, the Kd was roughly 1000 nM. B7 was tested, and the Kd was roughly 1000 nM. With B8 the Kd was roughly 1000 nM. Work on B9 yielded a Kd of roughly 1000 nM. For B10, the Kd was roughly 1000 nM. B11 was tested, and the Kd was roughly 1000 nM. With B12 the Kd was roughly 1000 nM.
